Experimental data published in patent US20250043028A1 (Hoffmann-La Roche, published 2025).

T1: human CEA expressed on tumor cells (LS-174T, MKN-45, MC38-huCEA) (human, UniProt P06731 35-685)
T1 sequence (looked up): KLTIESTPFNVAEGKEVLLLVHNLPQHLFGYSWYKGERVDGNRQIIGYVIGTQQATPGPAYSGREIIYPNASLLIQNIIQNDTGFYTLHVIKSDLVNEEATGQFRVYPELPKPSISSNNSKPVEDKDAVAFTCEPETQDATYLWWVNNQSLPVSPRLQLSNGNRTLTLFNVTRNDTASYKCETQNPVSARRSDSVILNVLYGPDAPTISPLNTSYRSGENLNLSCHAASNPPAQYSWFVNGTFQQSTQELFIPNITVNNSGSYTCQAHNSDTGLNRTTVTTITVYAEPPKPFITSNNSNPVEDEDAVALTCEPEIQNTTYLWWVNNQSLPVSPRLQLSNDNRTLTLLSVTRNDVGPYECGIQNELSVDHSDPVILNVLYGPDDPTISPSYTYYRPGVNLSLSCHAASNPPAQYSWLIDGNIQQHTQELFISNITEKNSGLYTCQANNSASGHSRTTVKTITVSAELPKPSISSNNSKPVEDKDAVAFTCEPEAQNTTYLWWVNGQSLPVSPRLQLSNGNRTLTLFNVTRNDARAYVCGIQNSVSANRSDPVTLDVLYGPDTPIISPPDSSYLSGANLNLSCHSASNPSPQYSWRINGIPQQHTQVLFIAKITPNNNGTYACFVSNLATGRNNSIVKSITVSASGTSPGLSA

B1: “1+1 IgG Crossfab light chain (LC) fusion” (CH1A1A/V9) (anti-CEA/anti-huCD3) (bispecific antibody)
chain 1: DIQMTQSPSSLSASVGDRVTITCRASQDIRNYLNWYQQKPGKAPKLLIYYTSRLESGVPSRFSGSGSGTDYTLTISSLQPEDFATYYCQQGNTLPWTFGQGTKVEIKSSASTKGPSVFPLAPSSKSTSGGTAALGCLVKDYFPEPVTVSWNSGALTSGVHTFPAVLQSSGLYSLSSVVTVPSSSLGTQTYICNVNHKPSNTKVDKKVEPKSC
chain 2: DIQMTQSPSSLSASVGDRVTITCKASAAVGTYVAWYQQKPGKAPKLLIYSASYRKRGVPSRFSGSGSGTDFTLTISSLQPEDFATYYCHQYYTYPLFTFGQGTKLEIKRTVAAPSVFIFPPSDEQLKSGTASVVCLLNNFYPREAKVQWKVDNALQSGNSQESVTEQDSKDSTYSLSSTLTLSKADYEKHKVYACEVTHQGLSSPVTKSFNRGECGGGGSGGGGSGGGGSGGGGSEVQLVESGGGLVQPGGSLRLSCAASGYSFTGYTMNWVRQAPGKGLEWVALINPYKGVSTYNQKFKDRFTISVDKSKNTAYLQMNSLRAEDTAVYYCARSGYYGDSDWYFDVWGQGTLVTVSSASVAAPSVFIFPPSDEQLKSGTASVVCLLNNFYPREAKVQWKVDNALQSGNSQESVTEQDSKDSTYSLSSTLTLSKADYEKHKVYACEVTHQGLSSPVTKSFNRGEC
chain 3: not shown
chain 4: DKTHTCPPCPAPEAAGGPSVFLFPPKPKDTLMISRTPEVTCVVVDVSHEDPEVKFNWYVDGVEVHNAKTKPREEQYNSTYRVVSVLTVLHQDWLNGKEYKCKVSNKALGAPIEKTISKAKGQPREPQVCTLPPSRDELTKNQVSLSCAVKGFYPSDIAVEWESNGQPENNYKTTPPVLDSDGSFFLVSKLTVDKSRWQQGNVFSCSVMHEALHNHYTQKSLSLSPGK
B2: “2+1 IgG Crossfab”; CL/CH1 exchange (M4-3 ML2/V9) (anti-MCSP/anti-huCD3) (bispecific antibody)
chain 1: B1 chain 1
chain 2: not shown
chain 3: QVQLQESGPGLVKPSQTLSLTCTVSGGSITSGYYWNWIRQHPGKGLEWIGYITYDGSNNYNPSLKSRVTISRDTSKNQFSLKLSSVTAADTAVYYCADFDYWGQGTLVTVSSASTKGPSVFPLAPSSKSTSGGTAALGCLVKDYFPEPVTVSWNSGALTSGVHTFPAVLQSSGLYSLSSVVTVPSSSLGTQTYICNVNHKPSNTKVDKKVEPKSCDKTHTCPPCPAPEAAGGPSVFLFPPKPKDTLMISRTPEVTCVVVDVSHEDPEVKFNWYVDGVEVHNAKTKPREEQYNSTYRVVSVLTVLHQDWLNGKEYKCKVSNKALGAPIEKTISKAKGQPREPQVCTLPPSRDELTKNQVSLSCAVKGFYPSDIAVEWESNGQPENNYKTTPPVLDSDGSFFLVSKLTVDKSRWQQGNVFSCSVMHEALHNHYTQKSLSLSPGK
chain 4: not shown
B3: “1+1 IgG Crossfab”; VL/VH exchange (LC007/V9) (anti-MCSP/anti-huCD3) (bispecific antibody)
chain 1: DIVLTQSPSSLSASLGDRVTISCSASQGIRNYLNWYQQRPDGTVKLLIYYTSSLHSGVPSRFSGSGSGTDYSLTISNLEPEDIATYYCQQYSKLPWTFGGGTKLEIKRTVAAPSVFIFPPSDEQLKSGTASVVCLLNNFYPREAKVQWKVDNALQSGNSQESVTEQDSKDSTYSLSSTLTLSKADYEKHKVYACEVTHQGLSSPVTKSFNRGEC
chain 2: DIQMTQSPSSLSASVGDRVTITCRASQDIRNYLNWYQQKPGKAPKLLIYYTSRLESGVPSRFSGSGSGTDYTLTISSLQPEDFATYYCQQGNTLPWTFGQGTKVEIKSSASTKGPSVFPLAPSSKSTSGGTAALGCLVKDYFPEPVTVSWNSGALTSGVHTFPAVLQSSGLYSLSSVVTVPSSSLGTQTYICNVNHKPSNTKVDKKVEPKSCGGGGSGGGGSEVQLQESGPGLVKPSQSLSLTCSVTGYSITSGYYWNWIRQFPGNKLEWMGYITYDGSNNYNPSLKNRISITRDTSKNQFFLKLNSVTTEDTATYYCADFDYWGQGTTLTVSSASTKGPSVFPLAPSSKSTSGGTAALGCLVKDYFPEPVTVSWNSGALTSGVHTFPAVLQSSGLYSLSSVVTVPSSSLGTQTYICNVNHKPSNTKVDKKVEPKSCDKTHTCPPCPAPEAAGGPSVFLFPPKPKDTLMISRTPEVTCVVVDVSHEDPEVKFNWYVDGVEVHNAKTKPREEQYNSTYRVVSVLTVLHQDWLNGKEYKCKVSNKALGAPIEKTISKAKGQPREPQVCTLPPSRDELTKNQVSLSCAVKGFYPSDIAVEWESNGQPENNYKTTPPVLDSDGSFFLVSKLTVDKSRWQQGNVFSCSVMHEALHNHYTQKSLSLSPGK
chain 3: EVQLVESGGGLVQPGGSLRLSCAASGYSFTGYTMNWVRQAPGKGLEWVALINPYKGVSTYNQKFKDRFTISVDKSKNTAYLQMNSLRAEDTAVYYCARSGYYGDSDWYFDVWGQGTLVTVSSASVAAPSVFIFPPSDEQLKSGTASVVCLLNNFYPREAKVQWKVDNALQSGNSQESVTEQDSKDSTYSLSSTLTLSKADYEKHKVYACEVTHQGLSSPVTKSFNRGEC
chain 4: not shown
B4: “2+1 IgG Crossfab”; CL/CH1 exchange (LC007/anti-CD3) (anti-MCSP/anti-huCD3) (bispecific antibody)
chain 1: B3 chain 1
chain 2: EVQLQESGPGLVKPSQSLSLTCSVTGYSITSGYYWNWIRQFPGNKLEWMGYITYDGSNNYNPSLKNRISITRDTSKNQFFLKLNSVTTEDTATYYCADFDYWGQGTTLTVSSASTKGPSVFPLAPSSKSTSGGTAALGCLVKDYFPEPVTVSWNSGALTSGVHTFPAVLQSSGLYSLSSVVTVPSSSLGTQTYICNVNHKPSNTKVDKKVEPKSCDKTHTCPPCPAPEAAGGPSVFLFPPKPKDTLMISRTPEVTCVVVDVSHEDPEVKFNWYVDGVEVHNAKTKPREEQYNSTYRVVSVLTVLHQDWLNGKEYKCKVSNKALGAPIEKTISKAKGQPREPQVCTLPPSRDELTKNQVSLSCAVKGFYPSDIAVEWESNGQPENNYKTTPPVLDSDGSFFLVSKLTVDKSRWQQGNVFSCSVMHEALHNHYTQKSLSLSPGK
chain 3: QAVVTQESALTTSPGETVTLTCRSSTGAVTTSNYANWVQEKPDHLFTGLIGGTNKRAPGVPARFSGSLIGDKAALTITGAQTEDEAIYFCALWYSNLWVFGGGTKLTVLSSASTKGPSVFPLAPSSKSTSGGTAALGCLVKDYFPEPVTVSWNSGALTSGVHTFPAVLQSSGLYSLSSVVTVPSSSLGTQTYICNVNHKPSNTKVDKKVEPKSC
chain 4: not shown
B5: “2+1 IgG Crossfab, inverted”; CL/CH1 exchange (LC007/anti-CD3) (anti-MCSP/anti-huCD3) (bispecific antibody)
chain 1: B3 chain 1
chain 2: B4 chain 2
chain 3: B4 chain 3
chain 4: not shown
B6: “1+1 CrossMab”; CL/CH1 exchange (LC007/V9) (anti-MCSP/anti-huCD3) (bispecific antibody)
chain 1: B3 chain 1
chain 2: B4 chain 2
chain 3: B1 chain 1
chain 4: not shown
B7: “2+1 IgG Crossfab”; VL/VH exchange (M4-3 ML2/V9) (anti-MCSP/anti-huCD3) (bispecific antibody)
chain 1: B3 chain 3
chain 2: not shown
chain 3: not shown
chain 4: B2 chain 3
B8: “2+1 IgG Crossfab, inverted”; CL/CH1 exchange (LC007/V9) (anti-MCSP/anti-huCD3) (bispecific antibody)
chain 1: B3 chain 1
chain 2: B4 chain 2
chain 3: B1 chain 1
chain 4: not shown

What was measured:
[1] = target: T1, human CEA expressed on tumor cells …; assay: cell-based or functional assay
[2] = target: T2, human MCSP expressed on tumor cells (Colo-38, WM266-4, MV-3) (human, UniProt Q6UVK1 30-2322); assay: cell-based or functional assay
T2 sequence (Q6UVK1 30-2322): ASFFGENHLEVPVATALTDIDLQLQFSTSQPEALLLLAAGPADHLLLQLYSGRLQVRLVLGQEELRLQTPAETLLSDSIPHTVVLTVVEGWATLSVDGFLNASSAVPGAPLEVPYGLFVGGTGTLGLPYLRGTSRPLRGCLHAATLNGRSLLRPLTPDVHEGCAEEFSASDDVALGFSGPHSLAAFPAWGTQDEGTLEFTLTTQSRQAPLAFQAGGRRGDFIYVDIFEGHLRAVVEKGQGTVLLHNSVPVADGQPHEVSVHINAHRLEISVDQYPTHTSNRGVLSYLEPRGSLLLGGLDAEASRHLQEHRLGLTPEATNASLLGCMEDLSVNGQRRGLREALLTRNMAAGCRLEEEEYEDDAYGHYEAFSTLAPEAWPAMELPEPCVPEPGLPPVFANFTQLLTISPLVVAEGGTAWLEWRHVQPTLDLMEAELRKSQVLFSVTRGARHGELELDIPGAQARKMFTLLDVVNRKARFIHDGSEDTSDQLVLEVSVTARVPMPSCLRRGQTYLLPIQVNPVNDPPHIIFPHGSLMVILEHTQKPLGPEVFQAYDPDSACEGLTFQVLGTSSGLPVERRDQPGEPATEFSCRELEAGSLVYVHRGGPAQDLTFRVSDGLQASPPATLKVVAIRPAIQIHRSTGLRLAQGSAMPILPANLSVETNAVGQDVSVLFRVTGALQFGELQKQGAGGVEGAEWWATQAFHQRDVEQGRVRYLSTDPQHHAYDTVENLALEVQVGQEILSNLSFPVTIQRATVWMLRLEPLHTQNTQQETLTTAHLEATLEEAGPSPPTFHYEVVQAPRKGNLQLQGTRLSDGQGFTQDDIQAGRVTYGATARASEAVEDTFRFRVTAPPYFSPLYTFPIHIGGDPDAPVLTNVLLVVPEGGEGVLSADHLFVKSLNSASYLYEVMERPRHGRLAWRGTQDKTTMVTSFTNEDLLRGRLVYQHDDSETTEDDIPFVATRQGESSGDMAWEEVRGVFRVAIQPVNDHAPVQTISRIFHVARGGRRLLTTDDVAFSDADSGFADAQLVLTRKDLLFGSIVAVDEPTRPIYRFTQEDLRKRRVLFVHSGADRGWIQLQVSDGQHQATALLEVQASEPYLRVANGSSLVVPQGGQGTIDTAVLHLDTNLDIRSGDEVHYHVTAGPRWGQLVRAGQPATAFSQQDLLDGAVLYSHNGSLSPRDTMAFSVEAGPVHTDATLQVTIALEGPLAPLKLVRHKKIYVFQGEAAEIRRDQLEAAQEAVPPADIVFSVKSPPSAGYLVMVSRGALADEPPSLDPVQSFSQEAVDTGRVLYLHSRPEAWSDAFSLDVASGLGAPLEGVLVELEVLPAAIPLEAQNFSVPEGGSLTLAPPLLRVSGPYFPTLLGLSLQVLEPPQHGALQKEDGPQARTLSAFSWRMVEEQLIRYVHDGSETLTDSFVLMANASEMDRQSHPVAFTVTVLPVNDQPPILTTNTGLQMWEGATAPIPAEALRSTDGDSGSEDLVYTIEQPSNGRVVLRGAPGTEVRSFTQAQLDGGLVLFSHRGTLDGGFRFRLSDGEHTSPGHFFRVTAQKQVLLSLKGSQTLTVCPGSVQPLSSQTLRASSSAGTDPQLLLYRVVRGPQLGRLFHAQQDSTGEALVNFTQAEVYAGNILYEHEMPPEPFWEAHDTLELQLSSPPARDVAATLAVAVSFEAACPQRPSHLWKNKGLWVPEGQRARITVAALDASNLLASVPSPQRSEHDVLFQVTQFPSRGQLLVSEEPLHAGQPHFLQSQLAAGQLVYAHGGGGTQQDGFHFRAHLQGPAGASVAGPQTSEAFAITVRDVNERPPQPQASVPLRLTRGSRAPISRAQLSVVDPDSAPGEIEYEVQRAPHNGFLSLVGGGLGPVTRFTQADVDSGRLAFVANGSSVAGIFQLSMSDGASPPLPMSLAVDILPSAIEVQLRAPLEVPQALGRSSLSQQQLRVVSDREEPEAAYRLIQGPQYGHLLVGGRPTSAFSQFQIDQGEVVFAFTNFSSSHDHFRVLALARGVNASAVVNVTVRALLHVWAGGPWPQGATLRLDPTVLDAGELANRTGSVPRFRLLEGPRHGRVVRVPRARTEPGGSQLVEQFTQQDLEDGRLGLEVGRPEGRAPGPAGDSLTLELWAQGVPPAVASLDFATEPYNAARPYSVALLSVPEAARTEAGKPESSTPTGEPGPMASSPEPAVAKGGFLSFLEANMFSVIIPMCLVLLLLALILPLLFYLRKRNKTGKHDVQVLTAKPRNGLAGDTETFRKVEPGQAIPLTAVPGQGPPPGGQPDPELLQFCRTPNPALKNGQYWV

[3] = target: T2, human MCSP expressed on tumor cells …; assay: flow cytometry on WM266-4 cells
[4] = target: T3, human CD3 expressed on Jurkat cells (human, UniProt P07766 23-207); assay: flow cytometry on Jurkat cells
T3 construct: CD3 as part of the T cell receptor complex on Jurkat cells; also called huCD3; human CD3 on cells
T3 sequence (P07766 23-207 limits assumed): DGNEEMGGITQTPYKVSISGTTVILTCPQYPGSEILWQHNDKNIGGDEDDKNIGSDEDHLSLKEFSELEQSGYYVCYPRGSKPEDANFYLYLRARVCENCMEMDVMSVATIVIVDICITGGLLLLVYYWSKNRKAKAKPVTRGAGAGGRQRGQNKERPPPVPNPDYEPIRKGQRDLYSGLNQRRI

[5] = target: T2, human MCSP expressed on tumor cells …; assay: cell-based or functional assay; remark: listed apart in the source

| Binder | EC50 [3] [nM] | EC50 [4] [nM] | EC50 [pM] of T cell-mediated killing (LDH release) of MV-3 cells, human PBMCs, E:T 10:1, about 24 h [5] [pM] | EC50 [pM] of T cell-mediated killing (LDH release) of WM266-4 cells, human PBMCs, E:T 10:1, about 24 h [5] [pM] | other results |
| --- | --- | --- | --- | --- | --- |
| B1 |  |  |  |  | EC50 of apoptosis induction (LDH release) in LS-174T cells, human PBMCs, E:T 10:1, 28 h [1]: 1.56 nM; EC50 of apoptosis induction (LDH release) in MC38-huCEA cells, human PBMCs, E:T 10:1, 24 h [1]: ~3.2 nM; EC50 of apoptosis induction (LDH release) in MKN-45 cells, human PBMCs, E:T 10:1, 28 h [1]: 0.213 nM |
| B2 |  |  |  |  | EC50 of killing (LDH release) of MV-3 cells, human PBMCs, E:T 10:1, 27 h [2]: ~0.0117 nM; EC50 of killing (LDH release) of WM266-4 cells, human PBMCs, E:T 10:1, 26 h [2]: 0.0129 nM |
| B3 |  |  |  |  | EC50 of killing (LDH release) of MV-3 cells, human PBMCs, E:T 10:1, 21 h [2]: 0.0409 nM; EC50 of killing (LDH release) of WM266-4 cells, human PBMCs, E:T 10:1, 21 h [2]: 0.0284 nM |
| B4 | 3.1 | 10.3 | 11 | 11.3 |  |
| B5 | 3.4 | 32 | 3 | 7.1 |  |
| B6 |  |  |  |  | EC50 of killing (LDH release) of MV-3 cells, human PBMCs, E:T 10:1, 21 h [2]: 0.0884 nM; EC50 of killing (LDH release) of WM266-4 cells, human PBMCs, E:T 10:1, 21 h [2]: 0.0539 nM |
| B7 |  |  |  |  | EC50 of killing (LDH release) of MV-3 cells, human PBMCs, E:T 10:1, 27 h [2]: ~0.0822 nM; EC50 of killing (LDH release) of WM266-4 cells, human PBMCs, E:T 10:1, 26 h [2]: 0.0168 nM |
| B8 | 0.57 | 6.1 | 4.1 | 3.7 |  |
